From US20150141617A1, “PRODUCTION AND PURIFICATION OF ACTIVE EUKARYOTIC FORMYLGLYCINEGENERATING ENZYME (FGE) VARIANTS” (Universität Bielefeld, priority 2013, published 2015)

Columns and labels:
PC5a = target: T1, PC5a (Mus musculus, UniProt Q04592); assay: FGE processing in CHO-FD11 Tet-On cells co-expressing PC5a; format: cell-based, murine; conditions: PC5a coexpression
T1 construct: expressed in transfected cells; host or cells: CHO-FD11 Tet-On cells, transient co-transfection with pBI-FGE-HA
T1 sequence (Q04592 117-915 isoform Q04592-2 limits assumed): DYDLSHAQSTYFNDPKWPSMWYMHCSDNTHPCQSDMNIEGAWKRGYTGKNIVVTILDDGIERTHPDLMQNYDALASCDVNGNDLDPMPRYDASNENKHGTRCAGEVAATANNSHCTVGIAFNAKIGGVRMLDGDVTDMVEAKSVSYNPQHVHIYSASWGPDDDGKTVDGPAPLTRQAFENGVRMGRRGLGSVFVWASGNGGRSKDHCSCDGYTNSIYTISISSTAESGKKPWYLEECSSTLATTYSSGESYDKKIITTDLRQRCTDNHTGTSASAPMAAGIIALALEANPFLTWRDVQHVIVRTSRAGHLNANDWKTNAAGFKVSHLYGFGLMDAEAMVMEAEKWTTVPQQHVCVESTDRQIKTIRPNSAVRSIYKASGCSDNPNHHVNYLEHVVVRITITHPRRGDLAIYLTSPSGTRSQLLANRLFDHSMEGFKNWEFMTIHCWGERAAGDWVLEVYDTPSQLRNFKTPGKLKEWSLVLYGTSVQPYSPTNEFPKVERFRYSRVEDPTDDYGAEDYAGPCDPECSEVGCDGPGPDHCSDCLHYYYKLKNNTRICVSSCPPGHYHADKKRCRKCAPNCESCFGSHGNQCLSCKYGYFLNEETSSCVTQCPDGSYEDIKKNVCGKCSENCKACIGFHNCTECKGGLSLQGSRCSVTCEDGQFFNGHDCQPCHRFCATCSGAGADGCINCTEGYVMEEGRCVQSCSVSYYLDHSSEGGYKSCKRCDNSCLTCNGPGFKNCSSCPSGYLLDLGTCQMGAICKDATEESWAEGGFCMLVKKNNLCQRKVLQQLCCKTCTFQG
Excerpt: (§1) The resulting constructs were verified by full-length sequencing of the coding region to exclude any PCR prone errors. Plasmids for expression of the PCs encoding human furin (Gene ID 5045), human PACE4 (=PCSK6, Gene ID 5046), murine […] (=Pcsk5, Gene ID 18552) and rat PC7 (=Pcsk7, Gene ID 29606) were kindly provided by Abdel-Majid Khatib (18). Note that the PC cDNAs were encoded as pIRES constructs coding also for enhanced green fluorescence protein (EGFP) such that EGFP expression levels serve as a measure of the expression levels of PCs.
(§2) 3 μg of pSB-FGE-RGS-His6 vector was used for single transfections of HT1080, HeLa, HEK 293, BHK and CHO cells. Conditioned medium was collected after 24 h and centrifuged (500×g, 5 min) Cells were washed once with PBS, treated with trypsin (Lonza) and pelleted by 250×g to remove the medium. Cell pellets were resuspended in PBS (pH 7.4) containing protease inhibitor (PI) cocktail (Sigma) and lysed by sonication 3×10 s on ice. For co-expression of FGE with one of the PCs in CHO-FD11 Tet-On cells 2 μg of pBI-FGE-HA and 2 μg of the plasmids encoding PCs (see above) were used for transient transfection. In case of transient transfections using pBI-vector constructs the protein expression was induced by replenishing the medium with medium containing 2 μg/mL doxycycline (BD Biosciences) at 5 h post-transfection. […]

human PACE4 = target: T2, human PACE4 (Homo sapiens, UniProt P29122); assay: FGE processing in CHO-FD11 Tet-On cells co-expressing PACE4; format: cell-based; conditions: PACE4 coexpression
T2 construct: expressed in transfected cells; host or cells: CHO-FD11 Tet-On cells, transient co-transfection with pBI-FGE-HA
T2 sequence (P29122 150-969): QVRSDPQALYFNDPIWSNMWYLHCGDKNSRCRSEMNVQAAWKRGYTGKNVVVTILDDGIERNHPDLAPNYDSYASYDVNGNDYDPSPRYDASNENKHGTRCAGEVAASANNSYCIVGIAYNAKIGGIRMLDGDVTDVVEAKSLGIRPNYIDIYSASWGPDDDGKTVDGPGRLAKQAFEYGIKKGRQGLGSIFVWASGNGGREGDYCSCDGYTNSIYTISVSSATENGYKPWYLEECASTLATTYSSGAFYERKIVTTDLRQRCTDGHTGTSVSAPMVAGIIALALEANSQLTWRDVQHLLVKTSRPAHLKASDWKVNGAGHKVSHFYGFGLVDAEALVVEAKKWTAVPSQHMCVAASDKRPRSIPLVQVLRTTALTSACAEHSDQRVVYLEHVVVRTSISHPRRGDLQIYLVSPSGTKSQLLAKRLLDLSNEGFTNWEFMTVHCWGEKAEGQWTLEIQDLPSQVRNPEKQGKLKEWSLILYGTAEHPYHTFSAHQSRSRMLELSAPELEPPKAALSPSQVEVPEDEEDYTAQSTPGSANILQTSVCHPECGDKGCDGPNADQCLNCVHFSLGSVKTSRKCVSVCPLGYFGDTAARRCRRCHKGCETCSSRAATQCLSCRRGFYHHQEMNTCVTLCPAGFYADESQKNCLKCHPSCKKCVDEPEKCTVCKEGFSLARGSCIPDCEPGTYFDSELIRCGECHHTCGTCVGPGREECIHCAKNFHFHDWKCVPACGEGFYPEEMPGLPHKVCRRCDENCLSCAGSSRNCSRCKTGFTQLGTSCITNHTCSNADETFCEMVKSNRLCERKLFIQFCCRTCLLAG
Excerpt: as §1, §2

B1: FGE: human wild type full length formylglycine generating enzyme with RYSR furin cleavage motif, SEQ ID NO:2 (protein)
chain: ADEFSQEAGTGAGAGSLAGSCGCGTPQRPGAHGSSAAAHRYSREANAPGPVPGERQLAHSKMVPIPAGVFTMGTDDPQIKQDGEAPARRVTIDAFYMDAYEVSNTEFEKFVNSTGYLTEAEKFGDSFVFEGMLSEQVKTNIQQAVAAAPWWLPVKGANWRHPEGPDSTILHRPDHPVLHVSWNDAVAYCTWAGKRLPTEAEWEYSCRGGLHNRLFPWGNKLQPKGQHYANIWQGEFPVTNTGEDGFQGTAPVDAFPPNGYGLYNIVGNAWEWTSDWWTVHHSVEETLNPKGPPSGKDRVKKGGSYMCHRSYCYRYRCAARSQNTPDSSASNLGFRCAADRLPTMDSGRGSHHHHHHH
modifications: cloned matured acitve full length FGE with 6x His tag on C-terminus
**Q.** B1 was tested. Which “processing of FGE” value (PC5a) did it give?
**A.** Its value is “low efficiency”.

**Q.** And the “processing of FGE” value (human PACE4)?
**A.** Its value is “low efficiency”.
